Legend:
[1] = test system: men with chronic prostatitis/chronic pelvic pain syndrome; details: CP/CPPS; cited from earlier work
HLA-DR DRB1*0901 (human) = experiment: radioligand binding
HLA-DR DRB1*0404 (human) = experiment: radioligand binding
HLA-DR DRB4*0101 (human) = experiment: radioligand binding
HLA-DR DRB1*1501 (human) = experiment: radioligand binding
HLA-DR DRB1*1302 (human) = experiment: radioligand binding
HLA-DR DRB1*0401 (human) = experiment: radioligand binding
HLA-DR DRB1*0301 (human) = experiment: radioligand binding
HLA-DR DRB1*0405 (human) = experiment: radioligand binding
HLA-DR DRB5*0101 (human) = experiment: radioligand binding
HLA-DR DRB1*1101 (human) = experiment: radioligand binding
[2] = test system: CD4 and CD8 T cells from men with GP; details: men with granulomatous prostatitis; cited from earlier work
CD4 lymphocytes = details: CP/CPPS; cited from earlier work
HLA-DR DRB1*0701 (human) = experiment: radioligand binding
HLA-DR DRB1*0802 (human) = experiment: radioligand binding
HLA-DR DRB1*0101 (human) = experiment: radioligand binding

Row | Molecule | IC50 (HLA-DR DRB1*0901 (human)) [nM] | IC50 (HLA-DR DRB1*0404 (human)) [nM] | IC50 (HLA-DR DRB4*0101 (human)) [nM] | IC50 (HLA-DR DRB1*1501 (human)) [nM] | IC50 (HLA-DR DRB1*1302 (human)) [nM] | IC50 (HLA-DR DRB1*0401 (human)) [nM] | IC50 (HLA-DR DRB1*0301 (human)) [nM] | IC50 (HLA-DR DRB1*0405 (human)) [nM] | IC50 (HLA-DR DRB5*0101 (human)) [nM] | IC50 (HLA-DR DRB1*1101 (human)) [nM] | IC50 (HLA-DR DRB1*0701 (human)) [nM] | IC50 (HLA-DR DRB1*0802 (human)) [nM] | IC50 (HLA-DR DRB1*0101 (human)) [nM] | improvement of symptoms versus placebo (in words) [1] | recognition by CD4 and CD8 T cells in GP (in words) [2] | recognition by CD4 lymphocytes (in words) (CD4 lymphocytes)
1 | O=C(O)c1cn(C2CC2)c2cc(N3CCNCC3)c(F)cc2c1=O [ciprofloxacin] | – | – | – | – | – | – | – | – | – | – | – | – | – | no more effective than placebo at improving symptoms | – | –
2 | PSA: prostate specific antigen, normal self prostatic protein | – | – | – | – | – | – | – | – | – | – | – | – | – | – | CD4 and CD8 T cells from men with GP can recognize PSA | can be recognized by CD4 lymphocytes
3 | KSEEFQKRLHPYKDFIATLG [PAP_(173-192)] | 93 | 374 | – | 4 | > 20000 | 296 | > 20000 | 211 | 24 | 28 | 132 | – | 25 | – | – | –

More lines, main results first:

Row | IC50 (HLA-DR DRB1*0901 (human)) [nM] | IC50 (HLA-DR DRB1*0404 (human)) [nM] | IC50 (HLA-DR DRB4*0101 (human)) [nM] | IC50 (HLA-DR DRB1*1501 (human)) [nM] | IC50 (HLA-DR DRB1*1302 (human)) [nM] | IC50 (HLA-DR DRB1*0401 (human)) [nM] | IC50 (HLA-DR DRB1*0301 (human)) [nM] | IC50 (HLA-DR DRB1*0405 (human)) [nM] | IC50 (HLA-DR DRB5*0101 (human)) [nM] | IC50 (HLA-DR DRB1*1101 (human)) [nM] | IC50 (HLA-DR DRB1*0701 (human)) [nM] | IC50 (HLA-DR DRB1*0802 (human)) [nM] | IC50 (HLA-DR DRB1*0101 (human)) [nM] | Molecule | improvement of symptoms versus placebo (in words) [1] | recognition by CD4 and CD8 T cells in GP (in words) [2] | recognition by CD4 lymphocytes (in words) (CD4 lymphocytes)
4 | > 20000 | 219 | 880 | 351 | 997 | 117 | 961 | 719 | > 20000 | > 20000 | – | – | – | PSA_(171-190) (peptide) | – | – | –
5 | 786 | 3.3 | – | 25 | > 20000 | 93 | > 20000 | 67 | – | – | 428 | 646 | 108 | PSA_(221-240) (peptide) | – | – | –
6 | – | 28 | 82 | 1.5 | 339 | 39 | > 20000 | 164 | – | 964 | – | – | 25 | NPILLWQPIPVHTVPLSEDQ [PAP_(133-152)] | – | – | –
